{"source": "patent US20260263563A1", "about": "“Method of Treatment of a Thoracolumbar Deformity in a Human Subject with Achondroplasia” (Ascendis Pharma Growth Disorders A/S, priority 2023, published 2026)", "origin": "cited, not measured here", "details": "in vivo; cited from earlier work", "note": "Positions of bridges follow the written chain, without caps; N, C: chain ends. No end group written: not given here.", "data": [{"substance": "Vosoritide (PGQEHPNARKYKGANKKGLSKGCFGLKLDRIGSMSGLGC; disulfide 23-39)", "values": [{"measurement": "reported t½", "value": "about 28 minutes"}]}]}
